According to the DeepSol protein solubility set:

Assay: soluble on expression in E. coli; label from the status in PepcDB or PDB records

Row | Sequence | soluble on expression in E. coli
1 | MASQLTQRGALFLLFFLTPAVTPTWYAGSGYYPDESYNEVYAEEVPQAPALDYRVPRWCYTLNIQDGEATCYSPKGGNYHSSLGTRCELSCDRGFRLIGRRSVQCLPSRRWSGTAYCRQMRCHALPFITSGTYTCTNGVLLDSRCDYSCSSGYHLEGDRSRICMEDGRWSGGEPVCVDIDPPKIRCPHSREKMAEPEKLTARVYWDPPLVKDSADGTITRVTLRGPEPGSHFPEGEHVIRYTAYDRAYNRASCKFIVKVQVRRCPTLKPPQHGYLTCTSAGDNYGASCEYHCDGGYDRQGTPSRVCQSSRQWSGSPPICAPMKINVNVNSAAGLLDQFYEKQRLLIISAPDPSNRYYKMQISMLQQSTCGLDLRHVTIIELVGQPPQEVGRIREQQLSANIIEELRQFQRLTRSYFNMVLIDKQGIDRDRYMEPVTPEEIFTFIDDYLLSNQELTQRREQRDICE | soluble
2 | MASSPQLEEEAAGKLETIHASAMAKSKKKTDVVDSTNLPILELLSLKAPIFQSLLHPELPIIITGFGTGHIVCHRYDPAKLQSHLDRRRRIDTATTGKDAKKGVCPWIRLDIDLETGDLKFVDIEEQQQQKQTGKDEDLGVKTLWKTKRHKGSVRAMCFDSKGDNIFSVGSDNVLKKANTMTGKVVKKVNLSSLFNSEEKKNDKFTKLCASQTHPFILIGDESGNIHVINSENLALSNSIRSIHFGDSINDIFHFDKRSAYKFISLGQTTLAYFDVRDKDAKPNVAGNEDGKILISDDQEDEVLCGCFVDPEVADTLLCGMGEGIVTVWKPNKNDLEDQMSRIKISKDESIDCIVPTLQDDNCVWCGCSNGNIYKVNAKLGKVVEIRNHSELDEVSFVDLDFEYRVVSGGLENIKIWELSSDDVEENASVESDSDEPLSHSDEDLSDDTSSDDETTLVGLSKEELLDELDKDLKEDHQEEKESNSKSVKKRKIMKENNKKKDLYEHGIKKFDDL | soluble
3 | MASSTTFVIVGGGLAGAKAVEALRRSDFGGRIILFGDEEHLPYDRPPLSKEFLAGKKSLSDFTIQTSDWYRDHDVDVRLGVRVSSLDRSAHTVELPDGAAVRYDKLLLATGSAPRRPPIPGSDAAGVHYLRSYNDAVALNSVLVQGSSLAVVGAGWIGLEVAASARQRGVDVTVVETAIQPLLAALGEAVGKVFADLHRDQGVDLRLQTQLEEITAADGKATGLKMRDGSTVAADAVLVAVGAKPNVELAQQAGLAMGEGGVLVDASLRTSDPDIYAVGDIAAAEHPLLGTRVRTEHWANALKQPAVAAAGMLGRPGEYAELPYLFTDQYDLGMEYVGHAPSCDRVVFRGNVAGREFLSFWLDGDSRVLAGMNVNVWDVVDDVKGLIRSGNPVDVDRLVDPQWPLADLTTN | not soluble
4 | MASTELSLKRTLTDILEDELYHTNPGHSQFTSHYQNYHPNASITPYKLVNKNKENNTFTWNHSLQHQNESSAASIPPQQTYHFPIFNKYADPTLTTTTSFTTSEATANDRQINNVHLIPNEIKGASETPLQKTVNLKNIMKVSDPYVPTRNTFNYDVKISNDFFDNGDNLYGNDEEVLFYEDNYNPKMQWSLQDNSAAINNEDARAIFNNEFDSDDDDISDDEEDEIEENCLQQEQHQEEPLLSLDVTPISMFGSDQKTGRAKSSSHLFNEYSYVDSNMDSISSVVSEDLLDERGHEKIEDEDEDNDLDEDDIYDISLLKNRRKQSFVLNKNTIDFERFPSPSTSANVPSTATTGKRKPAKSSSNRSCVSNSNENGTLERIKKPTSAVVSSNASRRKLINYTKKHLSSHSSTNSNSKPSTASPSAHTSSSDGNNEIFTCQIMNLITNEPCGAQFSRSYDLTRHQNTIHAKRKIVFRCSECIKILGSEGYQKTFSRLDALTRHIKSKHEDLSLEQRQEVTKFAKANIGYVMG | not soluble
5 | MASTGVERRKPLENKVALVTASTDGIGLAIARRLAQDGAHVVVSSRKQENVDRTVATLQGEGLSVTGTVCHVGKAEDRERLVAMAVNLHGGVDILVSNAAVNPFFGNIIDATEEVWDKILHVNVKATVLMTKAVVPEMEKRGGGSVLIVSSVGAYHPFPNLGPYNVSKTALLGLTKNLAVELAPRNIRVNCLAPGLIKTNFSQVLWMDKARKEYMKESLRIRRLGNPEDCAGIVSFLCSEDASYITGETVVVGGGTASRL | soluble
6 | MASTKSELIERLATQQSHIPAKTVEDAVKEMLEHMASTLAQGGSGGLTKAEMSEYLFDKLGLSKRDAKELVELFFEEIRRALENGEQVELSGFGNFDLRDKNQRPGRNPKTGEDIPITARRVVTFRPGQKLKSRVENAGGGERIEIRGFGSFSLHYRAPRTGRNPKTGDKVELEGKYVPHFKPGKELRDRANIYGGSGHHHHHH | soluble
7 | MASTTQNTPTKDLAEISERFEKLRARSSNNMATFNTTSSYNRTYEKKVIEEGSPNVRVTTQTHTAIPGMPDLGNIHSSMLSNFPNLAISSPSVVGSQNGNLTSIRVTNTSFHAILDVSKYDADSLKVTVVDNNIIVEGSHGEKEDTYGTIESTFKRRFPLPKAVAPESVQSQLTADGHLTIDAKAPEPKQEGARPIQIKVINTSAEQQKQ | not soluble
8 | MASVELSADVPISPQDTWDHVSELSELGEWLVIHEGWRSELPDQLGEGVQIVGVARAMGMRNRVTWRVTKWDPPHEVAMTGSGKGGTKYGVTLTVRPTKGGSALGLRLELGGRALFGPLGSAAARAVKGDVEKSLKQFAELYGLEHHHHHH | not soluble
9 | MASWSHPQFEKGAETAVPNSSSVPGDPSSMTRKNVLLIVVDQWRADFIPHLMRAEGREPFLKTPNLDRLCREGLTFRNHVTTCVPGGPARASLLTGLYLMNHRAVQNTVPLDQRHLNLGKALRAIGYDPALIGYTTTTPDPRTTSARDPRFTVLGDIMDGFRSVGAFEPNMEGYFGWVAQNGFELPENREDIWLPEGEHSVPGATDKPSRIPKEFSDSTFFTERALTYLKGRDGKPFFLHLGYYRPHPPFVASAPYHAMYKAEDMPAPIRAENPDAEAAQHPLMKHYIDHIRRGSFFHGAEGSGATLDEGEIRQMRATYCGLITEIDDCLGRVFAYLDETGQWDDTLIIFTSDHGEQLGDHHLLGKIGYNAESFRIPLVIKDAGQNRHAGQIEEGFSESIDVMPTILEWLGGETPRACDGRSLLPFLAEGKPSDWRTELHYEFDFRDVFYDQPQNSVQLSQDDCSLCVIEDENYKYVHFAALPPLFFDLKADPHEFSNLAGDPAYAALVRDYAQKALSWRLSHADRTLTHYRSSPQGLTTRNH | soluble
10 | MATASQRNFLAVPDWLDAAILISDEQTSDIFDLAWDMDDFWVFGYGSLMWNPGFAFEERQQARLHGYRRSLCISSNFYRGTEEKPGLVLGLERGGSCLGVAFRVRGKDHDPVMAYLRERELVTNVYKERVVSIALANGRRGSAVTYVADPAHEQYIGGLGVAESAVIIAAATGRSGPNTDYLFNTVQHLQEMGIRDSLLESIAASVGTLSAQSAVVSLPLEHHHHHH | not soluble
11 | MATDQKRGLLIVFEGLDRSGKSTQAKRLVESINKKSTESGDASSSPSAVLQAFPDRSSSIGKLIDQYLRKEIDMDEHALHLLFSADRFSKNQMIRDNIAKGIDVICDRYCYSGVAYSLAKGLPEQWVRSSDVGLPKPDAVLFFDVSPEVAAQRGGFGEERLETATIQQKVAAVMPTLRDDAYWKTVNADGDLDSVEKNVFRIYENLDREKPFESLEKI | not soluble
12 | MATGNRNPENFTSLSPIVKAPITDTLSVPLSQQGRICGFFESQFYRCMEAYGAKMGRKYCDLEHRDFQECVTGDKQKKRADAIREQRCKLFLDGKIAKPYVDNHPEPGQFKTDHFQWNRIN | not soluble
13 | MATHKLSFFEKLANTFGALYRHQAQQFPRRLAILKAVGKHELAPPRSADIPAIKADWAKLQKFIETKQYVNLSIKESLVYSAVALEVVFWFFVGEMIGRRYIFGYIVPANYVSKDTKAKVAEKKRLAALEA | not soluble
14 | MATIIFAGRSNVGKSTLIYRLTGKKVRRGKRPGVTRKIIEIEWKNHKIIDMPGFGFMMGLPKEVQERIKDEIVHFIEDNAKNIDVAVLVVDGKAAPEIIKRWEKRGEIPIDVEFYQFLRELDIPTIVAVNKLDKIKNVQEVINFLAEKFEVPLSEIDKVFIPISAKFGDNIERLKNRIFEVIRERQGRRV | soluble
15 | MATKARVMYDFAAEPGNNELTVTEGEIITVTNPNVGGGWLEGKNNKGEQGLVPTDYVEILPNDGKDPFSC | soluble
16 | MATKKTFTDETYFKLSEAVYQDGTLNSKKINIELSDRTKSNWKVVSKLNDRATNTQAFAVIPEEKGKDGKIYYNHNNMIFVYRGTKESKDFGSDIINVFAGRNSRTSLDRKSKNPFQVSKEWTEEVLKEFNPKNPTSTGHSLGGALSHYNSILYDFNATTYAAPNIYQLLPEDKQKKVRDGFYNNSIIDFTHDDDMIGTFDQFSSPIIGSQYIAERNNVKVGAKGLFGAIPGHYNETFEGCFSSDGTMKLKVDVDSIIKHAQDIDDIIQSLQTNNADLENLEEKLQIGSKKIQNQLEEEIRIGGAYSELTTWDIDDVLTELCTKYKNGVYCFYNPNEFEKYYEMNHQTRRLLKNFQIELIDAAQSFRETDTRLGKWISNNN | not soluble
17 | MATLFIADLHLCVEEPAITAGFLRFLAGEARKADALYILGDLFEAWIGDDDPNPLHRQMAAAIKAVSDSGVPCYFIHGNRDFLLGKRFARESGMTLLPEEKVLELYGRRVLIMHGDTLCTDDAGYQAFRAKVHKPWLQMLFLALPLFVRKRIAARMRANSKEANSSKSLAIMDVNQNAVVSAMEKHQVQWLIHGHTHRPAVHELIANQQPAFRVVLGAWHTEGSMVKVTADDVELIHFPFLEHHHHHH | not soluble
18 | MATSSAASVDMEDIQTVDLMSELLRRMKCASKPDKRLVFIGPPGSGKGTQSPVIKDEFCLCHLSTGDMLRAAVAAKTPLGVKAKEAMDKGELVSDDLVVGIMDEAMNRPKCQKGFILDGFPRTVTQAEKLDEMLNRRGAQIDKVLNFAIDDSVLEERITGRWIHPSSGRSYHTKFAPPKVPGVDDLTGEPLIQRKDDNADVLRSRLDAFHKQTQPVIDYYAKKENLVNIPAEKAPEEVTKVVKKVVST | soluble
19 | MATTCQKRRYGTFRTGISKPGLSTRRFQHRDFSHGDFGTGTFRTAVSPPLTFSSPPTSTVATPYFPMRFINVKSHVSRPPPLHGDIPIGHEGTRVSRHVDDRCGLVVVSRHGRAGGCLSRLEHHHHHH | not soluble
20 | MAVAANKRSVMTLFSGPTDIYSHQVRIVLAEKGVSFEIEHVEKDNPPQDLIDLNPNQSVPTLVDRELTLWESRIIMEYLDERFPHPPLMPVYPVARGESRLYMHRIEKDWYTLMNTIINGSASEADAARKQLREELLAIAPVFGQKPYFLSDEFSLVDCYLAPLLWRLPQLGIEFSGPGAKELKGYMTRVFERDSFLASLTEAEREMRLGRS | soluble
21 | MAVAFYIPDQATLLREAEQKEQQILRLRESQWRFLATVVLETLRQYTSCHPKTGRKSGKYRKPSQ | not soluble
22 | MAVGLGPLPALHPVPGFELGISSAGIKRPGRKDVVVMRCAEGSSVAGVFTLNAFCAAPVILAKQRVQGTVRYLLTNTGNANAGTGEPGLVAARRTCEALAQLTGVDASAVLPYSTGVIGEPLPVEKIEGALQAALDDLSVDNWAAAATGIMTTDTLPKGASRQFTHDGVTITVTGISKGAGMIRPNMATMLGYIATDAKVSQSVLQDLIRDGANKSFNRLTIDGDTSTNDCCMLIATGQADLPEITEAKGLLFEALKKAVFDVCMEVAQAIVRDGEGATKFVTVEVNGGGNHQECLDVGYAVAHSPLIKTALFASDPNWGRILAAVGRAGVPDLDVSKIDVFLGGVCIASQGCRATTYTEEQGSAVMAEAEITIRIELGRGDCSETIWTTDLSHEYVKINAEYRTLEHHHHHH | not soluble
